Reference: publication PMC5003356

How the values were obtained:
P54nrb-HIS = biological target: T1, P54nrb-HIS (UniProt Q15233); assay: competition FP; settings: 3-10-3 cEt gap-mer; BRET: 1X binding buffer (0.1 M potassium acetate, 20 mM Tris pH 7.5, 1 mM EDTA, 0.01% NP-40), room temperature, 15 min; FP in the same buffer; c-Jun in OptiMEM …
T1 sequence: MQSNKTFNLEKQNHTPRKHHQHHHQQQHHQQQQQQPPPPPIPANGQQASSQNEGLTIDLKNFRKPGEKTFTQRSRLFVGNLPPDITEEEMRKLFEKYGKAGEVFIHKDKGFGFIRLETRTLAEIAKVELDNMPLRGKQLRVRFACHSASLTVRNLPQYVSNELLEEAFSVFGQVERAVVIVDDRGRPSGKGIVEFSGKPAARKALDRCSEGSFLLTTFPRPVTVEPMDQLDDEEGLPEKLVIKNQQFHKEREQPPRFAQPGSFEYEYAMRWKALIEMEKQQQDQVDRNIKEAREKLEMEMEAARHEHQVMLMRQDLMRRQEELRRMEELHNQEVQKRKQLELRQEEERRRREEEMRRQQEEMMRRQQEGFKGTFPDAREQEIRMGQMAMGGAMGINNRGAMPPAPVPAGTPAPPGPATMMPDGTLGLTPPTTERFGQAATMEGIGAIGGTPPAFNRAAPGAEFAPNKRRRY

[1] = biological target: T2, NLuc-La dR1/R2 internal_change (UniProt P05455); assay: BRET; settings: PS; 5-10-5 (S)-cEt gap-mer; BRET: 1X binding buffer (0.1 M potassium acetate, 20 mM Tris pH 7.5, 1 mM EDTA, 0.01% NP-40), room temperature, 15 min; FP in the same buffer; c-Jun in OptiMEM …
T2 sequence: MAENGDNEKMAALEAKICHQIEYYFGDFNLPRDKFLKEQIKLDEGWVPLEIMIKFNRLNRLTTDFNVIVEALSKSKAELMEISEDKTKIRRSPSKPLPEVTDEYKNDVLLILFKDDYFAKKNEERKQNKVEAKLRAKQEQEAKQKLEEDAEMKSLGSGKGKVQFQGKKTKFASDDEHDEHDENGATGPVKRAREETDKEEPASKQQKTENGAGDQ

Sequence | Kd (P54nrb-HIS) | binding signal (fold lower affinity than full length) [1]
AACATGTCTGCCAGGG [660956] | 33 nM | –
ACCCTGCCACGATGTA [660992] | 95.1 nM | –
CCACTGCGCAGGCCAG [660935] | 337 nM | –
CCAGCGGGTGGACTGT [660923] | 38.3 nM | –
CCCTCCCTCCCGCTAG [661121] | 19.5 nM | –
CTGCTAGCCTCTGGATTTGA [766636 cEt gap-mer] | – | 50
CTGGGAACTGGTCACC [660899] | 119 nM | –
CTTCTAGCCACTGGCT [661010] | 326 nM | –
GGGAGGAGGACAGCTC [660908] | 4.6 nM | –
GTTAAGAAGGCTGTCC [661073] | 260 nM | –
TCAGTCATGGTATAAA [661115] | 86.9 nM | –
TCCACAGAGCGGACTG [660965] | 310 nM | –
TGAGAAGATCTCCCGG [661103] | 33.6 nM | –
